Assay results reported in article PMC10252337.

Legend:
[1] = target: eel luteinizing hormone receptor D576G (constitutively activating mutant) (eel)
[2] = target: eel luteinizing hormone receptor R476H (inactivating mutant) (eel)
[3] = target: eel luteinizing hormone receptor, wild type (eel)
[4] = target: eel luteinizing hormone receptor D576G (constitutively activating mutant) (eel); remark: listed apart in the source
[5] = target: eel luteinizing hormone receptor, wild type (eel); remark: listed apart in the source

Row | plateau of agonist-induced loss of cell-surface receptor (ELISA on HEK-293 cells, 0-60 min, one-phase exponential decay) [1] | t1/2 of agonist-induced loss of cell-surface receptor (ELISA on HEK-293 cells, 0-60 min, one-phase exponential decay) [1] [min] | plateau of agonist-induced loss of cell-surface receptor (ELISA on HEK-293 cells, 0-60 min, one-phase exponential decay) [2] | t1/2 of agonist-induced loss of cell-surface receptor (ELISA on HEK-293 cells, 0-60 min, one-phase exponential decay) [2] [min] | plateau of agonist-induced loss of cell-surface receptor (ELISA on HEK-293 cells, 0-60 min, one-phase exponential decay) [3] | t1/2 of agonist-induced loss of cell-surface receptor (ELISA on HEK-293 cells, 0-60 min, one-phase exponential decay) [3] [min] | EC50 of cAMP production (HTRF) in CHO-K1 cells expressing the receptor, stimulated with rec-eel LH for 30 min [4] [µg/mL] | EC50 of cAMP production (HTRF) in CHO-K1 cells expressing the receptor, stimulated with rec-eel LH for 30 min [5] [µg/mL] | Substance
1 | 46.3 % of control | 2.1 | 42.6 % of control | 1.9 | 56.8 % of control | 2.5 | – | – | recombinant equine chorionic gonadotropin (from UniProt P08751 21-169; P01220 25-120) (ligand)
2 | 59.8 % of control | 0.6 | 61.9 % of control | 0.6 | 64.2 % of control | 0.9 | 0.0948 | 0.177 | recombinant eel luteinizing hormone, single-chain eel LHβ/α (ligand)
